# Assay results as given in publication PMC4225554.
# Legend:
# [1] = biological target: RD1-MART1 single-chain TCR, yeast-displayed (human); test: flow cytometry on cells
# [2] = biological target: RD1-MART1^HIGH single-chain TCR, yeast-displayed (human); test: flow cytometry on cells
EC50 [1] [nM],EC50 [2] [nM],Substance
> 5000,52,"MART1 ([…])/HLA-A2, refolded biotinylated monomer (from UniProt P61769 21-119) (peptide-MHC)"
130,–,MART1 ([…])/HLA-A2-Ig dimer (from UniProt P61769 21-119) (peptide-MHC)
